Test results reported in US5234903A, “Chemically modified hemoglobin as an effective, stable non-immunogenic red blood cell substitute” (Enzon, Inc., priority 1990, dated 1993).

Tested on: not listed separately
Assay: Viscosity and colloid osmotic pressure of PEG-Hb solutions
Format: physicochemical
Details: not given
Source text: (§1) The polyalkylene oxide modified hemoglobin may then be chemically characterized using methods known in the art. For example, the oxygen dissociation curve may be determined using standard techniques (for example, Imai et al., 1970, Biochim. Biophys. Acta 200: 189-196) allowing calculation of the P50 value. Additional parameters which would be desirable to measure include the methemoglobin content, the viscosity, the osmolality, the pH, and the Hill constant; the effects of changes in pH on the oxygen saturation curve may be determined as described in Bartels (1971, Blood oxygen dissociation curves: Mammals. in "Respiration and Circulation", Altman and Dittmer, Eds., Federation of American Societies for Experimental Biology, Bethesda).

In order of rising “Osmotic Press.” value:
1. Example II: bovine hemoglobin deoxygenated through gas permeable membrane, conjugated to SC-PEG (5000)  22 mmHg
2. CONTROL: control (native bovine hemoglobin) [reference compound]  22 mmHg
3. Example IV: bovine hemoglobin modified with SC-PEG (MW 2000) at a molar ratio of 40:1  22 mmHg
4. Example III: bovine hemoglobin conjugated with SC-PEG (MW 3000) at a molar ratio of 30:1  22 mmHg
5. Example I: bovine hemoglobin reduced with cysteine, modified with SC-PEG (MW 5000) at a molar ratio of 20:1  24 mmHg

In order of falling Viscosity:
1. Example II: bovine hemoglobin deoxygenated through gas permeable membrane, conjugated to SC-PEG (5000)  4.5 cp
2. Example III: bovine hemoglobin conjugated with SC-PEG (MW 3000) at a molar ratio of 30:1  3.8 cp
3. Example I: bovine hemoglobin reduced with cysteine, modified with SC-PEG (MW 5000) at a molar ratio of 20:1  3.6 cp
4. Example IV: bovine hemoglobin modified with SC-PEG (MW 2000) at a molar ratio of 40:1  3.2 cp
5. CONTROL: control (native bovine hemoglobin) [reference compound]  3.0 cp

In the case of “Example I: bovine hemoglobin reduced with cysteine, modified with SC-PEG (MW 5000) at a molar ratio of 20:1”, the colloid osmolality is reported as 24 mm Hg.

Tested on: not given
Assay: not given
Details: in words; cited from earlier work

In the case of “Stroma-free hemoglobin: stroma-free hemoglobin, taken out of the red blood cell microenvironment”, the “P50 / oxygen binding of stroma-free hemoglobin” value is given as “bind oxygen too tightly (a low P50)”.

Tested on: rats
Assay: Blood pressure, heart rate and breathing in rats after 70 percent exchange transfusion
Format: in vivo
Details: 70% exchange transfusion
Source text: Acute toxicity studies may be performed in any suitable experimental animal. Preferably, a range of exposures may be tested; for example, by evaluating animals that have received a 50 or 70 percent exchange transfusion as compared to animals that have received a 100 percent exchange transfusion. Vital signs and visual observations should be recorded, and the animals may be sacrificed after a period of time estimated to correspond to one half-life of the hemoglobin formulation being tested. Histological evaluation using standard techniques may be used to determine the presence or absence of toxic effects on tissues including lung, kidney, liver, or brain.
The results of in vivo studies, in which rats were given a 70 percent exchange transfusion of hemoglobin prepared according to Examples I-V or control (native bovine hemoglobin) are shown in Table V (bracketed numbers are values obtained in rats that were not transfused). Note that the breathing rate decreased slightly, and the blood pressure increased by at most about 30-35 percent relative to control, showing a good physiologic response to the exchange transfusion.

In order of rising Breathing:
1. Example III: bovine hemoglobin conjugated with SC-PEG (MW 3000) at a molar ratio of 30:1  79 min⁻¹
2. Example IV: bovine hemoglobin modified with SC-PEG (MW 2000) at a molar ratio of 40:1  83 min⁻¹
3. CONTROL: control (native bovine hemoglobin) [reference compound]  100 min⁻¹
4. Example II: bovine hemoglobin deoxygenated through gas permeable membrane, conjugated to SC-PEG (5000)  104 min⁻¹
5. Example I: bovine hemoglobin reduced with cysteine, modified with SC-PEG (MW 5000) at a molar ratio of 20:1  117 min⁻¹

In order of rising “Heart Rate” value:
1. CONTROL: control (native bovine hemoglobin) [reference compound]  304 min⁻¹
2. Example I: bovine hemoglobin reduced with cysteine, modified with SC-PEG (MW 5000) at a molar ratio of 20:1  392 min⁻¹
3. Example II: bovine hemoglobin deoxygenated through gas permeable membrane, conjugated to SC-PEG (5000)  408 min⁻¹
4. Example III: bovine hemoglobin conjugated with SC-PEG (MW 3000) at a molar ratio of 30:1  408 min⁻¹
5. Example IV: bovine hemoglobin modified with SC-PEG (MW 2000) at a molar ratio of 40:1  432 min⁻¹

In order of rising “Mean Arterial Press.” value:
1. CONTROL: control (native bovine hemoglobin) [reference compound]  90 mmHg
2. Example I: bovine hemoglobin reduced with cysteine, modified with SC-PEG (MW 5000) at a molar ratio of 20:1  102 mmHg
3. Example II: bovine hemoglobin deoxygenated through gas permeable membrane, conjugated to SC-PEG (5000)  119 mmHg
4. Example IV: bovine hemoglobin modified with SC-PEG (MW 2000) at a molar ratio of 40:1  129 mmHg
5. Example III: bovine hemoglobin conjugated with SC-PEG (MW 3000) at a molar ratio of 30:1  132 mmHg

Tested on: not listed separately
Assay: Half-life and intravascular Met-Hb in rats after 70 percent exchange transfusion
Format: in vivo
Details: rat, in vivo
Source text: Blood circulating time of polyalkylene oxide-modified Hb may, for example, and not by way of limitation, be evaluated by monitoring the concentration of hemoglobin in the plasma fraction (at 540 nm) of blood samples sequentially collected following exchange transfusion with modified Hb. Hemoglobin disappearance may be plotted as a function of time.

In the case of “Example I: bovine hemoglobin reduced with cysteine, modified with SC-PEG (MW 5000) at a molar ratio of 20:1”, the “Formation of Met-bHb in rat intravasculature” value is reported as “substantially lower than that of unmodified hemoglobin”.

With “Example I: bovine hemoglobin reduced with cysteine, modified with SC-PEG (MW 5000) at a molar ratio of 20:1” the “Met-Hb at Half-life” value was 29.3%.

Same assay, conditions: rat, in vivo, iv

In the case of “Example I: bovine hemoglobin reduced with cysteine, modified with SC-PEG (MW 5000) at a molar ratio of 20:1”, the Half-life is reported as 8.9 h.

Same assay, conditions: rats, 70% exchange transfusion

In order of rising Half-life:
1. CONTROL: control (native bovine hemoglobin) [reference compound]  1.5 h
2. Example II: bovine hemoglobin deoxygenated through gas permeable membrane, conjugated to SC-PEG (5000)  9.6 h
3. Example III: bovine hemoglobin conjugated with SC-PEG (MW 3000) at a molar ratio of 30:1  12.4 h
4. Example IV: bovine hemoglobin modified with SC-PEG (MW 2000) at a molar ratio of 40:1  13.0 h

In order of falling “Met-Hb at Half-life” value:
1. Example IV: bovine hemoglobin modified with SC-PEG (MW 2000) at a molar ratio of 40:1  18.0%
2. CONTROL: control (native bovine hemoglobin) [reference compound]  16.5%
3. Example III: bovine hemoglobin conjugated with SC-PEG (MW 3000) at a molar ratio of 30:1  13.8%
4. Example II: bovine hemoglobin deoxygenated through gas permeable membrane, conjugated to SC-PEG (5000)  5.8%

Tested on: not listed separately
Assay: Endotoxin (LAL test)
Details: not given

For “Example II: bovine hemoglobin deoxygenated through gas permeable membrane, conjugated to SC-PEG (5000)”, the Endotoxin was “< .1 EU”.
With “Example I: bovine hemoglobin reduced with cysteine, modified with SC-PEG (MW 5000) at a molar ratio of 20:1” the Endotoxin was “< .1 EU”.
In the case of “CONTROL: control (native bovine hemoglobin) [reference compound]”, the Endotoxin is reported as “< .1 EU”.
With “Example IV: bovine hemoglobin modified with SC-PEG (MW 2000) at a molar ratio of 40:1” the Endotoxin was “< .1 EU”.
In the case of “Example III: bovine hemoglobin conjugated with SC-PEG (MW 3000) at a molar ratio of 30:1”, the Endotoxin is reported as “< .1 EU”.

With “Example I: bovine hemoglobin reduced with cysteine, modified with SC-PEG (MW 5000) at a molar ratio of 20:1” the endotoxins was “free of endotoxins”.

Tested on: not listed separately
Assay: Free iron by ferrozine assay
Format: physicochemical
Details: in preparation
Source text: The P50 of the above PEG-bHb was 29mm Hg (Table IV). […] Half-life of this example injected into rats after a 70 percent exchange transfusion was approximately nine hours (Table IV).

In order of rising “Free Iron” value:
1. Example IV: bovine hemoglobin modified with SC-PEG (MW 2000) at a molar ratio of 40:1  20 µg/dL
2. Example III: bovine hemoglobin conjugated with SC-PEG (MW 3000) at a molar ratio of 30:1  20 µg/dL
3. CONTROL: control (native bovine hemoglobin) [reference compound]  24 µg/dL
4. Example II: bovine hemoglobin deoxygenated through gas permeable membrane, conjugated to SC-PEG (5000)  27 µg/dL

Tested on: not given
Assay: not given
Details: in vivo; cited from earlier work

In the case of “Stroma-free hemoglobin: stroma-free hemoglobin, taken out of the red blood cell microenvironment”, the transfusion half-life is listed as “about 100 minutes”.

For “U.S. Pat. No. 4,529,719: stroma-free hemoglobin cross-linked with a bis-diaspirin ester, reacted with pyridoxal phosphate”, the Half-life is given as “approximately 20 hours”.

Tested on: not listed separately
Assay: Oxygen binding: P50 (partial pressure of oxygen at 50% saturation) and Hill coefficient
Details: Examples I-V and control
Description: Hemoglobin constitutes about 90% of the total protein in red blood cells. 100 ml of whole blood is capable of absorbing approximately 21 ml of gaseous oxygen due to the binding ability of hemoglobin. Equally important to the binding of oxygen, hemoglobin is also efficient in releasing the bound oxygen to tissues. The ability of hemoglobin to bind and release oxygen is often quantitatively expressed as the P50, the partial pressure of oxygen which results in fifty percent saturation of hemoglobin.
The resulting modified hemoglobin may then be tested to determine its P50 value so as to confirm that a clinically useful P50 has been achieved. Methods of P50 measurement include standard methods of analysis, such as, for example, methods utilizing the Hemox-Analyzer (TCS Medical Products Co., Huntingdon Valley, Pa.).
Following reduction, the hemoglobin may be reacted with an activated polyalkylene oxide under conditions which maintain the structural integrity of the oxygen binding site. In preferred embodiments of the invention, such conditions consist of a high anion concentration; in a specific embodiment this anion is chloride ion. In preferred embodiments, the chloride ion concentration is at least about 1.0M. […] According to the invention, the activated polyalkylene oxide may have one or more than one functional groups. The degree of modification for each preparation referred to in Table I is approximately 20 percent. This percent modification corresponds to about […] PEG molecules per each molecule of hemoglobin. The percent modification may be calculated according to the number of lysines modified by PEG and is based on a total of 48 surface lysines in bovine hemoglobin. The number may be determined by trinitrobenzene sulfonic acid (TNBS) assay (Habeef et al., 1966, Analyt. Biochem. 14:328-336).
as §1
Purification was carried out using a hollow-fiber ultrafiltration device with M.W. cutoff of 50 kD that is commercially available from American Fluid, Richboro, Pa. The advantage of this device relative to conventional tangential flat ultrafiltration membranes is its easy handling of viscous protein solutions such as the 6% PEG-Hb solution. Following purification, the P50 of the PEG-Hb was determined by a Hemox-Analyzer (TCS Medical Products Co., Huntington Valley, Pa.).

In order of rising “Hill coeff.” value:
1. Example IV: bovine hemoglobin modified with SC-PEG (MW 2000) at a molar ratio of 40:1  1.8
2. Example III: bovine hemoglobin conjugated with SC-PEG (MW 3000) at a molar ratio of 30:1  2.05
3. Example II: bovine hemoglobin deoxygenated through gas permeable membrane, conjugated to SC-PEG (5000)  2.2
4. CONTROL: control (native bovine hemoglobin) [reference compound]  2.4
5. Example I: bovine hemoglobin reduced with cysteine, modified with SC-PEG (MW 5000) at a molar ratio of 20:1  2.58

In order of rising p50:
1. Example IV: bovine hemoglobin modified with SC-PEG (MW 2000) at a molar ratio of 40:1  20 mmHg
2. Example II: bovine hemoglobin deoxygenated through gas permeable membrane, conjugated to SC-PEG (5000)  24 mmHg
3. Example III: bovine hemoglobin conjugated with SC-PEG (MW 3000) at a molar ratio of 30:1  25 mmHg

Tested on: not listed separately
Assay: Methemoglobin content of PEG-Hb preparations
Format: physicochemical
Details: in preparation
Source text: as §1

“Example II: bovine hemoglobin deoxygenated through gas permeable membrane, conjugated to SC-PEG (5000)” showed a MetHb of less than 5%.
Substance “CONTROL: control (native bovine hemoglobin) [reference compound]” has a MetHb of less than 5%.
Substance “Example IV: bovine hemoglobin modified with SC-PEG (MW 2000) at a molar ratio of 40:1” has a MetHb of less than 5%.
For “Example III: bovine hemoglobin conjugated with SC-PEG (MW 3000) at a molar ratio of 30:1”, the MetHb was less than 5%.

In the case of “Example I: bovine hemoglobin reduced with cysteine, modified with SC-PEG (MW 5000) at a molar ratio of 20:1”, the MetHb is reported as 6%.
